Measured values: patent US20250206837A1 (ELIXIRON IMMUNOTHERAPEUTICS HONG KONG, published 2025)
Several values for one entry are separate records, joined by “and”; a condition that tells them apart may be missing. Equal values may be shown once. One block for each binder: values may come before it.

Key:
[1] = molecular target: T1, Recombinant His-tagged human CD36.ECD protein (Sino Biological) (human, UniProt P16671 30-439); assay: ELISA, coated human CD36.ECD (FIG. 2C)
T1 construct: Bought protein; also called hCD36.ECD; hCD36; not shown: His tag
Method: (§1) ELISA materials and methods: Recombinant His-tagged human CD36.ECD protein or His-tagged mouse CD36.ECD protein (both from Sino Biological) was immobilized on 96 well microtiter plate at a concentration of 1 μg/mL in Coating Solution (SeraCare) overnight at 4° C. The wells were washed with wash solution (0.05% Tween20 in PBS) and blocked with 1% BSA in PBS. Serial dilutions of anti-CD36 antibodies were added to wells. After incubation at 37° C. for 1 h, the wells were washed with wash solution. Peroxidase-conjugated Goat anti-human kappa Light chain antibody (Sigma) was applied to each well at 37° C. for 1 h incubation. After washing, the wells were developed with TMB substrate for 5-10 min at room temperature and then stopped with 1 N HCl. Thereafter absorbance was measured at 450 nm and 650 nm. EC50 values were calculated through GraphPad Prism7.
(§2) The competitor anti-CD36 antibody ONA, which is derived from clone “ONA-0-v1” as disclosed in WO2021176424A1 in hIgG4-S228P-FALA format.

[2] = molecular target: T1, Recombinant His-tagged human CD36.ECD …; assay: ELISA, coated human CD36.ECD (FIG. 2A)
Method: as §1, §2

[3] = molecular target: T1, Recombinant His-tagged human CD36.ECD …; assay: ELISA, coated human CD36.ECD (FIG. 2D)
Method: as §1, §2

[4] = molecular target: T2, mouse CD36-His overexpressed on stable F293 cells (mouse, UniProt Q08857 1-472); assay: cell-based or functional assay
[5] = molecular target: T3, full-length human CD36-Flag overexpressed on stable F293 cells (human, UniProt P16671 2-472); assay: cell-based or functional assay
[6] = molecular target: T2, mouse CD36-His overexpressed on stable …; assay: flow cytometry, F293 cells overexpressing mouse CD36
Source text: (§3) After washing with FACS buffer (2% FBS in PBS), the cells were stained with anti-human IgG-Alexa Fluor 647 and analyzed by Attune NxT Flow Cytometer (Thermo Scientific).

[7] = molecular target: T3, full-length human CD36-Flag …; assay: flow cytometry, F293 cells overexpressing human CD36
Source text: as §3

[8] = molecular target: T4, rhesus CD36-His overexpressed on stable F293 cells (rhesus, UniProt P16671 2-472 (human entry)); assay: flow cytometry, F293 cells overexpressing rhesus CD36
T4 construct: Gene segment from Sino Biological; also called F293/rhesusCD36; not shown: His tag
Source text: as §3

[9] = molecular target: T1, Recombinant His-tagged human CD36.ECD …; assay: ELISA, coated human CD36.ECD (FIG. 2F)
Method: as §1, §2

T2 sequence (Q08857 whole entry): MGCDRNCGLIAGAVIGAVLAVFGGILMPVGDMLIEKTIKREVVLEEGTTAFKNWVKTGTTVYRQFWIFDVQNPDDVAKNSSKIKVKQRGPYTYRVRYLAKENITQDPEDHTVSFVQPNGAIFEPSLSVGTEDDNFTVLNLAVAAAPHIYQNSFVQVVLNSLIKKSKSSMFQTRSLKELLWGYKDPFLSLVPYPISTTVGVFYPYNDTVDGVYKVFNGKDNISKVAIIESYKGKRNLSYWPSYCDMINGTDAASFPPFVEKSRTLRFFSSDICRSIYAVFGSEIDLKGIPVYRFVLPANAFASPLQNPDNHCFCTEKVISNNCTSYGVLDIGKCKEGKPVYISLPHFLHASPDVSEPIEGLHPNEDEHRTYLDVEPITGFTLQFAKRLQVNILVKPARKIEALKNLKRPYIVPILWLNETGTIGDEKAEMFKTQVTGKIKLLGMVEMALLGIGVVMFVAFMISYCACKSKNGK
T1 sequence (P16671 30-439 limits assumed): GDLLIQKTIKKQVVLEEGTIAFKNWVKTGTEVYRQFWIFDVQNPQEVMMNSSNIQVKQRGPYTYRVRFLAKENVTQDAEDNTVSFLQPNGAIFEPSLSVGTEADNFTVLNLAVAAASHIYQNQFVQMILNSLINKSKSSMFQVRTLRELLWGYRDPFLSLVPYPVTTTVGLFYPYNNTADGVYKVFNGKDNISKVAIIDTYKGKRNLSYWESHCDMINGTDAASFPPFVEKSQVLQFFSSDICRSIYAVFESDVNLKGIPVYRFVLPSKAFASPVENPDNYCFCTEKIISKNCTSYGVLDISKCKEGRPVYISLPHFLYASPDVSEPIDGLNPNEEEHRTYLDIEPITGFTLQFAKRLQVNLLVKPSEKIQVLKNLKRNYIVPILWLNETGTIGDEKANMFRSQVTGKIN
T4 sequence (P16671 other isoform, or with tags, fused parts or gaps): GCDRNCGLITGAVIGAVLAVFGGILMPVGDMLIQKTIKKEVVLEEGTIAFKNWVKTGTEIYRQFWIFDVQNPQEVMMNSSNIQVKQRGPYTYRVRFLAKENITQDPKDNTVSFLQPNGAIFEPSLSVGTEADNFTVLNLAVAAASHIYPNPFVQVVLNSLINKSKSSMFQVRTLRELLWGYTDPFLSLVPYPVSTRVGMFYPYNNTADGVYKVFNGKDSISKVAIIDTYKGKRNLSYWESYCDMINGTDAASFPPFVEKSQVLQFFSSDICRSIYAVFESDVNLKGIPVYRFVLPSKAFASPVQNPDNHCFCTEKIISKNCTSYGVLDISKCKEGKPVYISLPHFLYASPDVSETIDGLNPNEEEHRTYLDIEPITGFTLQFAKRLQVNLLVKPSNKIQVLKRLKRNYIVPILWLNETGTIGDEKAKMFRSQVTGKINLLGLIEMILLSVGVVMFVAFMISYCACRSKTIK
T3 sequence (P16671 2-472): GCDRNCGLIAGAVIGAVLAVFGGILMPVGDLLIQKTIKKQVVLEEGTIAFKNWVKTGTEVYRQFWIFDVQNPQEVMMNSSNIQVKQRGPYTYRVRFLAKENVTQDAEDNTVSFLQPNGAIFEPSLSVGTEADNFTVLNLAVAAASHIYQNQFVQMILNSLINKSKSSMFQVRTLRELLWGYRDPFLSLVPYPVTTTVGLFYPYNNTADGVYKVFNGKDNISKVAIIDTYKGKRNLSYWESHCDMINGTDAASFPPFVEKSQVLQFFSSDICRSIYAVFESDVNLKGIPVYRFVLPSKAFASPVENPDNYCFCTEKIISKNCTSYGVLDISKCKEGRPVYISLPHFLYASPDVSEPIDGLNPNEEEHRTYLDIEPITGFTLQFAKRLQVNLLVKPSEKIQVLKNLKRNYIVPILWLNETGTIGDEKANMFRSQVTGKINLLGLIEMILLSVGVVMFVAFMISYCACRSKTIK

EC50 [9]: 0.192 nM
B8: 117_AA57D (antibody, V domains shown)
VH: EVQLVESGGGLVQPGGSLRLSCAASGFTIAAFGIHWVRQAPGKGLEWVAWIAPYGGDTYYADSVKGRFTISADTSKNTAYLQMNSLRAEDTAVYYCARSFFGYFDYWGQGTLVTVSS
VL: DIQMTQSPSSLSASVGDRVTITCRASQDVSNWVAWYQQKPGKAPKLLISYATSLYSGVPSRFSGSGSGTDFTLTISSLQPEDFATYYCQQHSNAPLTFGQGTKVEIKR
notes: full-length IgG, human kappa

EC50 [3]: 0.049 nM
oxLDL uptake IC50 (nM), F293/hCD36 [5]: 0.332 nM
EC50 [6]: 0.271 µg/mL
EC50 [7]: 0.089 µg/mL
EC50 [8]: 0.416 µg/mL
B9: 117_DA57D (antibody, V domains shown)
VH: EVQLVESGGGLVQPGGSLRLSCAASGFTIDAFGIHWVRQAPGKGLEWVAWIAPYGGDTYYADSVKGRFTISADTSKNTAYLQMNSLRAEDTAVYYCARSFFGYFDYWGQGTLVTVSS
VL: DIQMTQSPSSLSASVGDRVTITCRASQDVSNWVAWYQQKPGKAPKLLISYATSLYSGVPSRFSGSGSGTDFTLTISSLQPEDFATYYCQQHSNAPLTFGQGTKVEIKR
notes: full-length IgG, human kappa

EC50 [3]: 0.0539 nM
EC50 [9]: 0.19 nM
oxLDL uptake IC50 (nM), F293/hCD36 [5]: 0.306 nM
EC50 [6]: 0.425 µg/mL and 0.375 µg/mL
EC50 [7]: 0.109 µg/mL and 0.0968 µg/mL
EC50 [8]: 0.563 µg/mL and 0.671 µg/mL
B12: 117_DA57E (antibody, V domains shown)
VH: EVQLVESGGGLVQPGGSLRLSCAASGFTIDAFGIHWVRQAPGKGLEWVAWIAPYGGETYYADSVKGRFTISADTSKNTAYLQMNSLRAEDTAVYYCARSFFGYFDYWGQGTLVTVSS
VL: DIQMTQSPSSLSASVGDRVTITCRASQDVSNWVAWYQQKPGKAPKLLISYATSLYSGVPSRFSGSGSGTDFTLTISSLQPEDFATYYCQQHSNAPLTFGQGTKVEIKR
notes: full-length IgG, human kappa

EC50 [9]: 0.251 nM
B14: 117_AA57E (antibody, V domains shown)
VH: EVQLVESGGGLVQPGGSLRLSCAASGFTIAAFGIHWVRQAPGKGLEWVAWIAPYGGETYYADSVKGRFTISADTSKNTAYLQMNSLRAEDTAVYYCARSFFGYFDYWGQGTLVTVSS
VL: DIQMTQSPSSLSASVGDRVTITCRASQDVSNWVAWYQQKPGKAPKLLISYATSLYSGVPSRFSGSGSGTDFTLTISSLQPEDFATYYCQQHSNAPLTFGQGTKVEIKR
notes: full-length IgG, human kappa

EC50 [3]: 0.0751 nM
B15: 117_101A (antibody, V domains shown)
VH: EVQLVESGGGLVQPGGSLRLSCAASGFTISSFGIHWVRQAPGKGLEWVAWIAPYGGYTYYADSVKGRFTISADTSKNTAYLQMNSLRAEDTAVYYCARSFAGYFDYWGQGTLVTVSS
VL: DIQMTQSPSSLSASVGDRVTITCRASQDVSNWVAWYQQKPGKAPKLLISYATSLYSGVPSRFSGSGSGTDFTLTISSLQPEDFATYYCQQHSNAPLTFGQGTKVEIKR
notes: full-length IgG, human kappa

EC50 [3]: 1.46 nM
B16: 117_101K (antibody, V domains shown)
VH: EVQLVESGGGLVQPGGSLRLSCAASGFTISSFGIHWVRQAPGKGLEWVAWIAPYGGYTYYADSVKGRFTISADTSKNTAYLQMNSLRAEDTAVYYCARSFKGYFDYWGQGTLVTVSS
VL: DIQMTQSPSSLSASVGDRVTITCRASQDVSNWVAWYQQKPGKAPKLLISYATSLYSGVPSRFSGSGSGTDFTLTISSLQPEDFATYYCQQHSNAPLTFGQGTKVEIKR
notes: full-length IgG, human kappa

Continued, binder first:

B1: 117_30AA (antibody, V domains shown)
VH: EVQLVESGGGLVQPGGSLRLSCAASGFTIAAFGIHWVRQAPGKGLEWVAWIAPYGGYTYYADSVKGRFTISADTSKNTAYLQMNSLRAEDTAVYYCARSFFGYFDYWGQGTLVTVSS
VL: DIQMTQSPSSLSASVGDRVTITCRASQDVSNWVAWYQQKPGKAPKLLISYATSLYSGVPSRFSGSGSGTDFTLTISSLQPEDFATYYCQQHSNAPLTFGQGTKVEIKR
notes: full-length IgG, human kappa
EC50 [1]: 0.145 nM

B2: 117_57A (antibody, V domains shown)
VH: EVQLVESGGGLVQPGGSLRLSCAASGFTISSFGIHWVRQAPGKGLEWVAWIAPYGGATYYADSVKGRFTISADTSKNTAYLQMNSLRAEDTAVYYCARSFFGYFDYWGQGTLVTVSS
VL: DIQMTQSPSSLSASVGDRVTITCRASQDVSNWVAWYQQKPGKAPKLLISYATSLYSGVPSRFSGSGSGTDFTLTISSLQPEDFATYYCQQHSNAPLTFGQGTKVEIKR
notes: full-length IgG, human kappa
EC50 [2]: 1.52 nM

B3: 117_30FA (antibody, V domains shown)
VH: EVQLVESGGGLVQPGGSLRLSCAASGFTIFAFGIHWVRQAPGKGLEWVAWIAPYGGYTYYADSVKGRFTISADTSKNTAYLQMNSLRAEDTAVYYCARSFFGYFDYWGQGTLVTVSS
VL: DIQMTQSPSSLSASVGDRVTITCRASQDVSNWVAWYQQKPGKAPKLLISYATSLYSGVPSRFSGSGSGTDFTLTISSLQPEDFATYYCQQHSNAPLTFGQGTKVEIKR
notes: full-length IgG, human kappa
EC50 [1]: 0.202 nM

B4: 117_30DA (antibody, V domains shown)
VH: EVQLVESGGGLVQPGGSLRLSCAASGFTIDAFGIHWVRQAPGKGLEWVAWIAPYGGYTYYADSVKGRFTISADTSKNTAYLQMNSLRAEDTAVYYCARSFFGYFDYWGQGTLVTVSS
VL: DIQMTQSPSSLSASVGDRVTITCRASQDVSNWVAWYQQKPGKAPKLLISYATSLYSGVPSRFSGSGSGTDFTLTISSLQPEDFATYYCQQHSNAPLTFGQGTKVEIKR
notes: full-length IgG, human kappa
EC50 [3]: 0.0803 nM
EC50 [1]: 0.137 nM
oxLDL uptake IC50 (nM), F293/mCD36 [4]: 1.07 nM
oxLDL uptake IC50 (nM), F293/hCD36 [5]: 0.691 nM
EC50 [6]: 0.488 µg/mL
EC50 [7]: 0.157 µg/mL
EC50 [8]: 1.04 µg/mL

B5: 117_57R (antibody, V domains shown)
VH: EVQLVESGGGLVQPGGSLRLSCAASGFTISSFGIHWVRQAPGKGLEWVAWIAPYGGRTYYADSVKGRFTISADTSKNTAYLQMNSLRAEDTAVYYCARSFFGYFDYWGQGTLVTVSS
VL: DIQMTQSPSSLSASVGDRVTITCRASQDVSNWVAWYQQKPGKAPKLLISYATSLYSGVPSRFSGSGSGTDFTLTISSLQPEDFATYYCQQHSNAPLTFGQGTKVEIKR
notes: full-length IgG, human kappa
EC50 [2]: 0.0695 nM

B6: 117_30AT (antibody, V domains shown)
VH: EVQLVESGGGLVQPGGSLRLSCAASGFTIATFGIHWVRQAPGKGLEWVAWIAPYGGYTYYADSVKGRFTISADTSKNTAYLQMNSLRAEDTAVYYCARSFFGYFDYWGQGTLVTVSS
VL: DIQMTQSPSSLSASVGDRVTITCRASQDVSNWVAWYQQKPGKAPKLLISYATSLYSGVPSRFSGSGSGTDFTLTISSLQPEDFATYYCQQHSNAPLTFGQGTKVEIKR
notes: full-length IgG, human kappa
EC50 [1]: 0.247 nM

B7: 117_30DT (antibody, V domains shown)
VH: EVQLVESGGGLVQPGGSLRLSCAASGFTIDTFGIHWVRQAPGKGLEWVAWIAPYGGYTYYADSVKGRFTISADTSKNTAYLQMNSLRAEDTAVYYCARSFFGYFDYWGQGTLVTVSS
VL: DIQMTQSPSSLSASVGDRVTITCRASQDVSNWVAWYQQKPGKAPKLLISYATSLYSGVPSRFSGSGSGTDFTLTISSLQPEDFATYYCQQHSNAPLTFGQGTKVEIKR
notes: full-length IgG, human kappa
EC50 [1]: 0.103 nM

B10: 117_30FT (antibody, V domains shown)
VH: EVQLVESGGGLVQPGGSLRLSCAASGFTIFTFGIHWVRQAPGKGLEWVAWIAPYGGYTYYADSVKGRFTISADTSKNTAYLQMNSLRAEDTAVYYCARSFFGYFDYWGQGTLVTVSS
VL: DIQMTQSPSSLSASVGDRVTITCRASQDVSNWVAWYQQKPGKAPKLLISYATSLYSGVPSRFSGSGSGTDFTLTISSLQPEDFATYYCQQHSNAPLTFGQGTKVEIKR
notes: full-length IgG, human kappa
EC50 [1]: 0.254 nM

B11: 117_57D (antibody, V domains shown)
VH: EVQLVESGGGLVQPGGSLRLSCAASGFTISSFGIHWVRQAPGKGLEWVAWIAPYGGDTYYADSVKGRFTISADTSKNTAYLQMNSLRAEDTAVYYCARSFFGYFDYWGQGTLVTVSS
VL: DIQMTQSPSSLSASVGDRVTITCRASQDVSNWVAWYQQKPGKAPKLLISYATSLYSGVPSRFSGSGSGTDFTLTISSLQPEDFATYYCQQHSNAPLTFGQGTKVEIKR
notes: full-length IgG, human kappa
EC50 [2]: 0.0529 nM
oxLDL uptake IC50 (nM), F293/mCD36 [4]: 0.783 nM
oxLDL uptake IC50 (nM), F293/hCD36 [5]: 0.349 nM
EC50 [6]: 0.309 µg/mL
EC50 [7]: 0.111 µg/mL
EC50 [8]: 0.397 µg/mL

B13: 117_58E (antibody, V domains shown)
VH: EVQLVESGGGLVQPGGSLRLSCAASGFTISSFGIHWVRQAPGKGLEWVAWIAPYGGYEYYADSVKGRFTISADTSKNTAYLQMNSLRAEDTAVYYCARSFFGYFDYWGQGTLVTVSS
VL: DIQMTQSPSSLSASVGDRVTITCRASQDVSNWVAWYQQKPGKAPKLLISYATSLYSGVPSRFSGSGSGTDFTLTISSLQPEDFATYYCQQHSNAPLTFGQGTKVEIKR
notes: full-length IgG, human kappa
EC50 [2]: 0.422 nM
